Patent publication US10835618 (UNIVERSITY OF NOTTINGHAM, dated 2020)
One block for each binder: values may come before it.

Legend:
BxPC3 = biological target: T1, BxPC3; assay: flow cytometry titration on BxPC3 cells, geometric mean against antibody concentration [panel FACS - BxPC3]
T1 construct: Group of unnamed glycoproteins on whole cells; also called cell surface of BxPC3 cells

LS180 = biological target: T2, LS180; assay: flow cytometry titration on LS180 cells, geometric mean against antibody concentration [panel FACS - LS180]
T2 construct: Group of unnamed glycoproteins on whole cells; also called cell surface of LS180 cells

HCT-15 = biological target: T3, HCT-15; assay: flow cytometry titration on HCT-15 cells, geometric mean against antibody concentration [panel FACS - HCT-15]
T3 construct: Group of unnamed glycoproteins on whole cells; also called cell surface of HCT-15 cells

Colo205 [1] = biological target: T4, Colo205; assay: flow cytometry titration on Colo205 cells, geometric mean against antibody concentration [panel FACS - Colo205]
T4 construct: Group of unnamed glycoproteins on whole cells; also called cell surface of Colo205 cells

Colo205 [2] = biological target: T4, Colo205; assay: flow cytometry titration on Colo205 cells, Gm value against concentration

Kd (BxPC3): 118 nM
Kd (LS180): 110 nM
Kd (HCT-15): 15.3 nM
Kd (Colo205 [1]): 57.3 nM
B1: CH129 (chimeric FG129, mouse variable regions on human IgG1/kappa constant regions) (antibody)
heavy: not shown
light: DIVMTQSPSSLTVTAGEKVTMSCKSSQSLLNSGNQKNYLTWYQQKPGQPPKVLIYWASTRESGVPDRFTGSGSGTDFTLTISSVQAEDLAVYYCQNDYSSPFTFGSGTKLEIKRTVAAPSVFIFPPSDEQLKSGTASVVCLLNNFYPREAKVQWKVDNALQSGNSQESVTEQDSKDSTYSLSSTLTLSKADYEKHKVYACEVTHQGLSSPVTKSFNRGEC
notes: Expressed in CHO-S or HEK293 cells and purified on protein G

Kd (BxPC3): 80.2 nM
Kd (LS180): 67.9 nM
Kd (HCT-15): 42.7 nM
Kd (Colo205 [1]): 53.3 nM
B2: FG129 mAb (mouse FG129/29 IgG1 kappa) (antibody)
heavy: EVQLVESGGGLVQPKGSLKLSCAASGFTFNTYAMNWVRQAPGKGLEWVARIRSKSNNYATYYADSVKDRFTISRDDSQSMLYLQMNNLKKEDTAMYYCVGYGSGGNYWGQGTSVTVSSAKTTPPSVYPLAPGSAAQTNSMVTLGCLVKGYFPEPVTVTWNSGSLSSGVHTFPAVLESDLYTLSSSVTVPSSPRPSETVTCNVAHPASSTKVDKKIVPRDCGCKPCICTVPEVSSVFIFPPKPKDVLTITLTPKVTCVVVDISKDDPEVQFSWFVDDVEVHTAQTQPREEQFNSTFRSVSELPIMHQDWLNGKEFKCRVNSAAFPAPIEKTISKTKGRPKAPQVYTIPPPKEQMAKDKVSLTCMITDFFPEDITVEWQWNGQPAENYKNTQPIMNTNGSYFVYSKLNVQKSNWEAGNTFTCSVLHEGLHNHHTEKSLSHSPGK
light: DIVMTQSPSSLTVTAGEKVTMSCKSSQSLLNSGNQKNYLTWYQQKPGQPPKVLIYWASTRESGVPDRFTGSGSGTDFTLTISSVQAEDLAVYYCQNDYSSPFTFGSGTKLEIKRADAAPTVSIFPPSSEQLTSGGASVVCFLNNFYPKDINVKWKIDGSERQNGVLNSWTDQDSKDSTYSMSSTLTLTKDEYERHNSYTCEATHKTSTSPIVKSFNRNEC
notes: Murine IgG1k from a hybridoma; It recognises the glycans sialyl-di-Lewis a, sialyl-Lewis a-x and mono-sialyl-Lewis a on glycoproteins; also called mAb FG129; F129/29

Kd (Colo205 [2]): 377 nM
B3: FG129-scFv (scFv)
scFv: EVQLVESGGGLVQPKGSLKLSCAASGFTFNTYAMNWVRQAPGKGLEWVARIRSKSNNYATYYADSVKDRFTISRDDSQSMLYLQMNNLKKEDTAMYYCVGYGSGGNYWGQGTSVTVSGGGGSGGGGSGGGGSDIVMTQSPSSLTVTAGEKVTMSCKSSQSLLNSGNQKNYLTWYQQKPGQPPKVLIYWASTRESGVPDRFTGSGSGTDFTLTISSVQAEDLAVYYCQNDYSSPFTFGSGTKLEIKRAAAAAAHHHHHH
notes: Order is leader, VH, 3xGGGGS, VL, 6xAla, 6xHis; The leader is left out as secreted from Expi293 cells; also called scFv129
